Source: the nanobody polyreactivity screen of Harvey et al. (2022)

Assay: yeast display, Sf9 membrane polyspecificity reagent, FACS + sequencing; frameworks hold sequencing errors
How it was run: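 After 36–48 hours of galactose induction, yeast (Saccharomyces cerevisiae BJ5465) displaying a synthetic nanobody library were stained at 4 °C for 1 hour with 10% biotinylated, detergent-solubilized Sf9 membrane reagent. Streptavidin microbeads enriched the stained cells before FACS sorting into low and high (top ~1%) gates on anti-HA and streptavidin fluorescence. Each clone's polyreactivity label reflects its gate of origin.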

Row | Sequence | polyreactivity (PSR sort gate)
1 | QVQRVESGGGLDQARGSLRLSCAASGITLDRYDMGWYRQAPGKERELVAAISRSGVRTYYADSVKGRFTISRDNAKNTVYLQRNSLKPEDPAVYYCNKGYARRYASGYDYWGQGTQVTVSS | high polyreactivity
2 | QVQLVESGGRLVQAGGSLRLSCAASGRTFSAYAMGWYRPAPGKERELVARITSVDSTNYADSVKGRFTISRDNAKNTVYLQMNSPKPEDTAVYYCNATFGYPFVDYDDYWGQGTQVTVSS | low polyreactivity
3 | QVQLVESGGGLVQAGGSLRLSCAASGSTFIDYGMGWYRQAPGKERELVAAIDLDSGDTYYADSVKGRFTISRENAKNTVYLQMNSLKPEDTAVYYCAAQYWYRYNYWGQGTQVTVSS | low polyreactivity
4 | QVQLVESGGGLVQAGGSLRLSCAASGSIFGIYAMGWYRQAPGKERELVAAIRRGGSTYYADSVKGRFTISRDNAKNTVYLQMNSLKPEDTAVYYCAGRKYRLWGKGVDYDFCGQGTQVTVSS | high polyreactivity
5 | QVQLVESGGGLVQAGGSLRLSCAASGSIFYFNAMGWYRQAPGKDRELVAAITYNGGSTRYADSVKGRFTISRDNAKNTVYLQMNSLKPEDTAVYYCAARAKYGPEDGYWGQGTQVTVSS | high polyreactivity
6 | HVQLVESGGGLVQAGGSLRLSCAASGSIFEYYAMGWYRQAPGKERELVASISRGTSTNYADSVKGRFTISRDNAKNTVYLQMNSLKPEDTAVYYCNADGWTVVLDTYGSWGQGTQVTVSS | low polyreactivity
7 | QVQLQESGGGLVQAGGSLRLSCAASCTISQEDWMGWYRQAPGKELEFVAAIGLGSNTNYADSLKGRFTISRDNAKNTVYLQMNSLKPEDTAVYYCAVSVWQYSDHVYRGQGTQVTVSS | low polyreactivity
8 | QVQRVESGGGLVQAGGSHRLSCAASGRIFSLNAMGWYRQAPGKERELVAAITTTGGTTYYADSVKGRFTISRDKAKNTVYLQMNSLKPEDTAVYYCAADYAPYNYLAYYFSGWLEYWGQGTQVTVSS | low polyreactivity
9 | QVQLLESGGGLVQAGGSLRLSCSASGITFFVYDMGWYRQAPGKERDLVAAITWAGDSTYYADSVKGRFTISRDNAKNTVYLQMNSLKPEDTAVYYCAAQFDVYYSRQPYDYNRSGYWGQGTQVTVSS | low polyreactivity
10 | QDQLVEAGGGLVQAGGSLRLSCAASRRTFWKYARGWYIQAPGKERELVAAISSSGGNTYYADSVKGRFTISRDNAKNTVYLQMNRLKPEDTAVYYCAAPLPRGAYFYWGQGTQVTVSS | high polyreactivity
11 | QVQLVESGGGLVQAGGSLRLSCAASGRNFRDYDMGWYRQAPGKERELGAAITYDGYSTYYADSVKGRFTISRDNAKNTVYLQMNSLKPEDTAVYYCNADDDVTYFTYYSGGLYYWGQGTQVTVSS | low polyreactivity
12 | QVQLVESGGGLVQAGGSLRLSCAASGYTFENYVKGWYSQAPGKERELVAAISSRGGSTYYADSVKGRFTISRDNAKNTVYLQMNSLKPEDTAVYYCAARARQTGPYRSRYNYWGQGTQVTVSS | high polyreactivity
13 | QVQLVESGGGLVQAGGSLRLSCAASGRTFITNAMGWSRPAPGKEREFVAAIRGGRGSTYYADSVKGRFTISRDNAKNTVYLQMNSVKPEDTAVYFCAARYWLFPRGYNYWGQGTQVTVSS | high polyreactivity
14 | QVQLVESGGGLVQAGGSLRLSCASSGRTFGLYDMGWYRQAPGKERELVAGITRRGGRTYYADSVKGRFTISRDNAKNPVELLMHCRKPEDTAVYYCNKVVTRWNQRWRYSEGNYWGQGTQVTVSS | high polyreactivity
15 | QVQLVESGGGLVQAGGSLRLSCAASGSIFSLYTMGWYRQAPGKERELVARITTSGGTTRYADSVKGRFTISRDTSKNTVYLQMISLKPEDTAVYYCAADRSPFWRGYVRYNYWGQGTQVTVSS | high polyreactivity
16 | QVQLQESGGGLVQAGGSLRLSCAASGNISVTGIMGWYRQAPGKERELVASIGIGGTTYYADSVNGRFSISRDNAKNTVYLQMISLKPEDTALYYLAARYLYYAYSYWGQGTQVTVSS | low polyreactivity
17 | QVQLVESGGGLVHAGGSLRLSCAASGSTFDRNAMGWARQAPGKDMELVDAISRSGGSTNYADSVKGRFTISRDNAKNTVYLQMNSLKPEDTAVYYCAAVRPLWYGQGWALYWFEYWGQGTQVTVSS | low polyreactivity
